Data from patent publication US7977317B2, “Compositions and methods for modulating blood-brain barrier transport” (Raptor Pharmaceutical Inc., priority 2001, dated 2011).

B1: lactoferrin: lactoferrin (Lf), LRP ligand used as competitor (protein, UniProt P02788 20-710, looked up)
Lactotransferrin: GRRRSVQWCAVSQPEATKCFQWQRNMRKVRGPPVSCIKRDSPIQCIQAIAENRADAVTLDGGFIYEAGLAPYKLRPVAAEVYGTERQPRTHYYAVAVVKKGGSFQLNELQGLKSCHTGLRRTAGWNVPIGTLRPFLNWTGPPEPIEAAVARFFSASCVPGADKGQFPNLCRLCAGTGENKCAFSSQEPYFSYSGAFKCLRDGAGDVAFIRESTVFEDLSDEAERDEYELLCPDNTRKPVDKFKDCHLARVPSHAVVARSVNGKEDAIWNLLRQAQEKFGKDKSPKFQLFGSPSGQKDLLFKDSAIGFSRVPPRIDSGLYLGSGYFTAIQNLRKSEEEVAARRARVVWCAVGEQELRKCNQWSGLSEGSVTCSSASTTEDCIALVLKGEADAMSLDGGYVYTAGKCGLVPVLAENYKSQQSSDPDPNCVDRPVEGYLAVAVVRRSDTSLTWNSVKGKKSCHTAVDRTAGWNIPMGLLFNQTGSCKFDEYFSQSCAPGSDPRSNLCALCIGDEQGENKCVPNSNERYYGYTGAFRCLAENAGDVAFVKDVTVLQNTDGNNNEAWAKDLKLADFALLCLDGKRKPVTEARSCHLAMAPNHAVVSRMDKVERLKQVLLHQQAKFGRNGSDCPDKFCLFQSETKNLLFNDNTECLARLHGKTTYEKYLGPQYVAGITNLKKCSTSPLLEACEFLRK
B2: p97: recombinant human melanotransferrin (p97), provided by Synapse Technologies (protein, UniProt P08582 20-709, looked up)
Melanotransferrin: GMEVRWCATSDPEQHKCGNMSEAFREAGIQPSLLCVRGTSADHCVQLIAAQEADAITLDGGAIYEAGKEHGLKPVVGEVYDQEVGTSYYAVAVVRRSSHVTIDTLKGVKSCHTGINRTVGWNVPVGYLVESGRLSVMGCDVLKAVSDYFGGSCVPGAGETSYSESLCRLCRGDSSGEGVCDKSPLERYYDYSGAFRCLAEGAGDVAFVKHSTVLENTDGKTLPSWGQALLSQDFELLCRDGSRADVTEWRQCHLARVPAHAVVVRADTDGGLIFRLLNEGQRLFSHEGSSFQMFSSEAYGQKDLLFKDSTSELVPIATQTYEAWLGHEYLHAMKGLLCDPNRLPPYLRWCVLSTPEIQKCGDMAVAFRRQRLKPEIQCVSAKSPQHCMERIQAEQVDAVTLSGEDIYTAGKTYGLVPAAGEHYAPEDSSNSYYVVAVVRRDSSHAFTLDELRGKRSCHAGFGSPAGWDVPVGALIQRGFIRPKDCDVLTAVSEFFNASCVPVNNPKNYPSSLCALCVGDEQGRNKCVGNSQERYYGYRGAFRCLVENAGDVAFVRHTTVFDNTNGHNSEPWAAELRSEDYELLCPNGARAEVSQFAACNLAQIPPHAVMVRPDTNIFTVYGLLDKAQDLFGDDHNKNGFKMFDSSNYHGQDLLFKDATVRAVPVGEKTTYRGWLGLDYVAALEGMSSQQC

Tests used:
human brain capillaries = test: Accumulation/uptake of [125I]-p97 in isolated human brain capillaries; format: binding; conditions: for Inhibition of [125I]-p97 binding/accumulation in human brain capillaries: competitor 5 micromolar, 100 nM p97, 1 h at 37° C. (FIG. 5)
Experimental: FIG. 5. Accumulation of p97 in human brain capillaries. Accumulation of [^125I]-p97 was measured at 37° C. for 1 h in isolated human brain capillaries (100 μg/assay). The incubation medium contained [^125I]-p97 and a final concentration of 100 nM p97 in Ringer/Hepes solution. The accumulation of [^125I]-p97 was performed in the presence or absence of 5 μm cold-p97, holo-transferrin or lactoferrin. […] The suspension was filtered under vacuum through a […] pore size Millipore filter. The filter was rinsed with 8 ml of stop solution, and the radioactivity was counted. Nonspecific binding of the radioactivity to the capillaries was determined by the addition of the ice-cold stop solution to the capillaries before adding the incubation medium. This value was subtracted from accumulation values obtained following an 1 h incubation. The results were expressed as ng of [^125I]-p97 accumulated per μg of brain capillaries.
FIG. 16 illustrates the identification of a p97 receptor according to ligand specificity. FIG. 16a, Uptake of [^125I]-p97 into human brain capillaries. The uptake of [^125I]-p97 at 100 nM (control) into isolated human brain capillaries was measured for 1 h at 37° C. in the presence of a 50-fold molar excess of unlabelled p97, human holo-transferrin or human lactoferrin. (*[…] Student's t-test (n=5); FIG. 16b, Effect of RAP on [^125I]-p97 transcytosis across BBCEC monolayers. Apical-to-basal transport of [^125I]-p97 was measured in the presence (closed circles) or absence (open circles) of RAP (25 μg/ml) (n=5); FIG. 16c, Inhibition of bovine [^125I]-lactoferrin transport by p97. Transcytosis of bovine [^125I]-lactoferrin (50 nM) was measured in the presence (closed circles) or absence (open circles) of unlabelled p97 (5 μM) at 37° C. (n=3).
A. Isolation of human brain capillaries. […]
B. p97 accumulation in human brain capillaries. […] Accumulation of [^125I]-p97 was measured at 37° C. for 1 h in isolated human brain capillaries (100 μg/assay). […]

BBCEC monolayers = test: Accumulation of ligands in BBCEC monolayers; format: cell-based, bovine; conditions: for Accumulation in the cell monolayer of heat denatured ligand compared to normal ligand: ligand boiled 30 mins, 37° C. (FIG. 7)
Experimental: (§1) FIG. 7 illustrates the results of experiments where the ligands p97, Lf and Tf were heated or not heated prior to the binding study. In all cases, binding experiments were conducted in the transwell apparatus as described previously, with the exception that binding was conducted at either 4° C. or at 37° C. For the 37° C. trial, a separate experiment was conducted where the ligand was boiled for 30 mins then rapidly cooled prior to administration on the transwell plates.
FIG. 13 illustrates the transcytosis and accumulation of p97 and transferrin in BBCEC monolayers. FIG. 13a, Transcytosis experiments were performed at 37° C. (solid bars) or 4° C. (white bars). [^125I]-p97 or bovine [^125I]-holo-transferrin (1 mg/ml) was added to the upper side of the cell-covered filter. At the end of the experiment, radiolabelled proteins were measured in the lower chamber of each well by TCA precipitation (n=4). Controls were also performed at 37° C. with denatured [^125I]-p97 or bovine [^125I]-holo-transferrin boiled for 30 min (grey bars) (n=2); FIG. 13b, Biospecific interaction analysis was performed with native or boiled p97 for the indicated times. MAb L235 (5 μg) was immobilized on a sensor chip (SM5) using standard procedures incorporating NHS, EDC and ethanolamine. Native and boiled p97 (5 to 30 min) diluted at 1 mg/ml in Ringer/Hepes was cooled and injected into the BIAcore. The surface plasmon resonance response obtained for native p97 and boiled p97 was plotted (in relative units (RU)) as a function of time; FIG. 13c, The accumulation of both proteins into BBEC cells were also measured. Briefly, after incubation at 37° C. (solid bars) or 4° C. (white bars) with either [^125I]-protein, cells were washed four times with cold PBS. Accumulation of both denatured proteins (grey bars) was also measured at 37° C. Filters were then removed, and the radioactivity associated with the cells was quantified (n=3).
as §1, with “In” for “FIG. 7 illustrates the results of experiments where the ligands p97, Lf and Tf were heated or not heated prior to the binding study. In”

Molecule	Inhibition of [125I]-p97 binding/accumulation in human brain capillaries (human brain capillaries)	Competition with p97 for receptor binding in human brain capillaries, repeat experiment (human brain capillaries; performed identically to FIG. 5 (FIG. 6))	Accumulation of Lf compared with p97 at the end of the experiment (BBCEC monolayers; FIG. 7)	Accumulation in the cell monolayer of heat denatured ligand compared to normal ligand (BBCEC monolayers)	Accumulation in BBCE cells (BBCEC monolayers; native proteins (FIG. 13c)) [μg/cm2]
B1	significantly inhibits	competes	almost twice as high	significantly lower accumulation	–
B2	significantly inhibits	–	–	significantly lower accumulation	5.7
